Among the data in US20250230224A1 (University of California, published 2025) are Kd values, retold here.

Positions count from the first letter of the chain named.

Assay in all cases: KinExA flow fluorimetry, solution phase, IgG
A general note: In KinExA the mixture passes briefly over coated beads that capture the unbound partner.

Test [1] deals with T1, Botulinum neurotoxin serotype C (BoNT/C) (Clostridium botulinum, UniProt P18640 2-1291).
T1 sequence: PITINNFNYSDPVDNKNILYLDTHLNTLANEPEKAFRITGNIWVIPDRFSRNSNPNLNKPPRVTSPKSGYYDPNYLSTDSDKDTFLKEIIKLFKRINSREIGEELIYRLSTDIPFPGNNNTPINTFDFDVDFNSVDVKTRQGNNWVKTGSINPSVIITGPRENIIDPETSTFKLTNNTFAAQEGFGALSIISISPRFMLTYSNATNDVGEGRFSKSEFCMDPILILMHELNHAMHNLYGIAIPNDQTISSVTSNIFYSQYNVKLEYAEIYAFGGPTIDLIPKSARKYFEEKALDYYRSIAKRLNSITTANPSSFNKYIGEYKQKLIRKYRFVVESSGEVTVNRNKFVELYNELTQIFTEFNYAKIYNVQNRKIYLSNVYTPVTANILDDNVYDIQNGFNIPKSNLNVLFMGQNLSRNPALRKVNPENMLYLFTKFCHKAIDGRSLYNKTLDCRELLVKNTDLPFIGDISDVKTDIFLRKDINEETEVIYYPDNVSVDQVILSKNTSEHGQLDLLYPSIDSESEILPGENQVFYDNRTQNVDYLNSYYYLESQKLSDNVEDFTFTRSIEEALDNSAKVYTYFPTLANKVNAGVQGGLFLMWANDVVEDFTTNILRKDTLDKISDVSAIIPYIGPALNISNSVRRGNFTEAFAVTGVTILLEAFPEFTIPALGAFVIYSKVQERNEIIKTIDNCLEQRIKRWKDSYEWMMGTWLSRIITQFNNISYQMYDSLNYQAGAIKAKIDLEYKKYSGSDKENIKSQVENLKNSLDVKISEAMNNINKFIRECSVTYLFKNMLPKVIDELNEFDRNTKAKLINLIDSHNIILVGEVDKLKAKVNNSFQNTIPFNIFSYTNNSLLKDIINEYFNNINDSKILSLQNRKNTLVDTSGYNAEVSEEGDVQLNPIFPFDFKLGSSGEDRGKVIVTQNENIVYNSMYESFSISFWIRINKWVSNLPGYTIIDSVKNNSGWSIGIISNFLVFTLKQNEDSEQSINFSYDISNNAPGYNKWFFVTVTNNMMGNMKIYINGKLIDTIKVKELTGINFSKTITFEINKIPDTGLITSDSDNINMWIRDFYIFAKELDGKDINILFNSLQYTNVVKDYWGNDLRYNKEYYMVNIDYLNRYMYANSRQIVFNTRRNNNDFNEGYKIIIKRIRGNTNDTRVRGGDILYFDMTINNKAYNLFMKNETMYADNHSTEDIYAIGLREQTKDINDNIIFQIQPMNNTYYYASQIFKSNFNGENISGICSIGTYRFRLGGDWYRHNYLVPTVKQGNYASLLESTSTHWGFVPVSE

For test [2], the target named is Mosaic botulinum neurotoxin BoNT/DC (Clostridium botulinum).
For test [3], the target named is T2, Botulinum neurotoxin serotype D (BoNT/D) (Clostridium botulinum, UniProt P19321 2-1276).
T2 sequence: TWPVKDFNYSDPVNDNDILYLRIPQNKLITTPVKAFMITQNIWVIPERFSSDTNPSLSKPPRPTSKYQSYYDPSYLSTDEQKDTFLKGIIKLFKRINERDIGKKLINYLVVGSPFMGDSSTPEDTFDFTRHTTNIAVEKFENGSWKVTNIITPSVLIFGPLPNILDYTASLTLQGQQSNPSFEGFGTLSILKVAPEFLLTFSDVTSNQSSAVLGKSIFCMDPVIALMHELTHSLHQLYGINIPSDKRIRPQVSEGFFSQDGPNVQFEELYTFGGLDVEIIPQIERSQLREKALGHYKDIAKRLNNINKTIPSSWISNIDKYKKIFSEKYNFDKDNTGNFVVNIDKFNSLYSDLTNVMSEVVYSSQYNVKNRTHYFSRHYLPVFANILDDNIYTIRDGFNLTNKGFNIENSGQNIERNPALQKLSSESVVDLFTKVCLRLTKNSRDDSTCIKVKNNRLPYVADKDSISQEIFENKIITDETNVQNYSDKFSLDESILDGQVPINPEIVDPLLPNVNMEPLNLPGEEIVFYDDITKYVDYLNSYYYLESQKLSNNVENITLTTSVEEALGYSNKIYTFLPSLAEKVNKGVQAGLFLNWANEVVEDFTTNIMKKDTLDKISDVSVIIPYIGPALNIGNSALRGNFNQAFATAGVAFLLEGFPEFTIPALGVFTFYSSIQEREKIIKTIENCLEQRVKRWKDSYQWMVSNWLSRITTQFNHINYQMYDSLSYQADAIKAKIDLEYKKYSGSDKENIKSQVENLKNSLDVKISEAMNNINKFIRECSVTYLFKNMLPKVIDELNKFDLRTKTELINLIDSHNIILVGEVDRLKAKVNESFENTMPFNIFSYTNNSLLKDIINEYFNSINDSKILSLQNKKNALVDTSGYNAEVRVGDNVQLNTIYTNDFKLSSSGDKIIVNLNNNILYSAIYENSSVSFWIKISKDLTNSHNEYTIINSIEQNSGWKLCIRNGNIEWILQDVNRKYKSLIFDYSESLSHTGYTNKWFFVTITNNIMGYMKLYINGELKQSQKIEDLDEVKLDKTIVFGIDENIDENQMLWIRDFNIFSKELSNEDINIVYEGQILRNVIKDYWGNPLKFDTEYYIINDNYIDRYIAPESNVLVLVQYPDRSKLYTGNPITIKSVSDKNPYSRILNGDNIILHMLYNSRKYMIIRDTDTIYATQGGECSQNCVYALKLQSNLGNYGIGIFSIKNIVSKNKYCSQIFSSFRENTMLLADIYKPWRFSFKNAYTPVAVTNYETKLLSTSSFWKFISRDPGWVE

B1: 4C4 IgG (antibody, V domains shown)
VH: QVQLVESGPGLVKPSQTLSLTCSVSGASINNSPYFWNWFRQFPGKGLEWIGYIYWSGSTNYNPSLKSRLAMSVDTSKNQFSLKLTSATAADTAVYYCARDQGGGTVVKENWFDPWGQGTLVTVSS
VL: DIVMTQSPSSLSASVGDRLTMTCQASQDIGKHLNWYQQKAGKPPKLLIYGASNLKTGVPSRFSAGVSWTDFTFTISNVQPEDVATYYCQQSYSTPPTFGQGTKVEIK
Take B1: the Kd – broadly, the constant that tells how readily two partners part at equilibrium – in test [1] is 0.888 nM; in test [2], 0.597 nM.

B2: 4C4.4 IgG (antibody, V domains shown)
VH: B1 VH with V5Q, S23T, N30S
VL: DIVMTQSPSSLSASVGDRLTMTCQASQDIGKHLNWYQQKAGKPPKLLIYGASNLKTGVPSRFSAGVSWTDFTFTISNVQPEDVATYYCQQSYSTPPTFGQGTKVEIKR
Molecule B2 registered a Kd in test [1] of 0.016 nM.

B3: 4C4.2 IgG (antibody, V domains shown)
VH: B1 VH
VL: DIQMTQSPSTLSASVGDRVTITCRASQSIGTYLNWYQQKPGRAPTLLVSRTSNLHTGVPSRFSGDGSGSHFSLTIDSLQPEDFATYYCQQSHTSPVTFGQGTKVEIK
For B3, the Kd in test [1] stood at 0.035 nM; in test [3], 0.254 nM; in test [2] it was 0.126 nM.

B4: 4C4.1 IgG (antibody, V domains shown)
VH: B1 VH
VL: ETTLTQSPSSLSASVGDRVSITCRASQSISNYLNWYQQKPGKAPKLLIYAASSLQSGVPSRFSGSGSGTDFTLTISSLQPEDFATYYCQQSYSDPPTFGQGTKVEIK
For B4, the Kd in test [1] came to 0.57 nM; in test [3] it was 0.898 nM; in test [2] it was 0.058 nM.

B5: 8DC4.1 IgG (antibody, V domains shown)
VH: QVQLQESGPGLVKPSQTLSLTCTVSGGSISSDNYFWTWIRQSPGKGLEWLGHISYSGRSYTNLSLKRRLTISVDTSKNQFSLNLNSVTAADTAVYYCARERLPPGRGYDMDVWGQGTTVTVSS
VL: not shown
For the molecule B5, the Kd in test [1], in test [3] and in test [2] was 1.4 nM each time.

B6: 8DC4.4 IgG (antibody, V domains shown)
VH: B5 VH
VL: DIVMTQSPSSVSASVGDRVTITCRASRDISIYLNWYQQKPGKAPKLLIYAASNLETGVPSRFSGSGSGTDFTLTISSLQPEDVATYYCQQSYNTPLTFGGGTKLEIKR
For the molecule B6, the Kd in test [1] was found to be 0.136 nM; in test [3], 0.157 nM.
